Patent US20220411514A1, “ANTI-GAL3 ANTIBODIES AND METHODS OF USE FOR INSULIN RESISTANCE” (TrueBinding, Inc., priority 2021, published 2022)

Assays:
human Gal3 = target: T1, human Gal3 (Homo sapiens, UniProt P17931); experiment: Epitope binning, sandwich format, SPR Carterra LSA (Example 8); type: binding
T1 construct: 6xHis (linker-spaced) (C); purchased AcroBio (Acro Biosystems) GA3-H5129
Procedure: The epitope binning assay was done in a sandwich format on the high-throughput SPR-based Carterra LSA unit (CarterraBio, Salt Lake City, Utah). First, the purified antibodies were diluted to 10 μg/ml concentration in 10 mM NaOAc (pH 5.0) and then were covalently coupled via amine group to HC200M chip activated by EDC and S-NHS to immobilize antibodies to different positions of a 384-spot array. One hundred thirty-eight binning cycles were run on the array of immobilized antibodies. In each cycle, first, human Gal3 (AcroBio GA3-H5129) was injected over the entire array to bind to different antibodies (primary antibody), followed by one antibody (secondary antibody) selected among the panel of 150 anti-GAL3 antibodies tested. At the end of each cycle, the array was regenerated by 10 mM Glycine (pH 2.0) to remove bound antigen and secondary antibody from the array. The data analysis was done using the Epitope software by CarterraBio.

Human Gal3 peptides = experiment: Gal3 peptide binding ELISA (Example 8); conditions: antibody 5 μg/mL
Procedure: Gal3 peptide binding activity of additional exemplary anti-Gal3 antibodies was assessed with the same peptides as described in FIG. 18 (SEQ ID NOs: 3-26). Human Gal3 peptides (LifeTein, custom order) and human Gal3 proteins (R&D Systems, 8259-GA; TrueBinding, QCB200349) were diluted in PBS (Corning, 21-030-CM) to concentrations of at least 100 μg/mL (peptides) or 1 μg/mL (proteins), and added to the wells of several 96-well ELISA plates (Thermo Fisher, 44-2404-21). After incubating the plates at 4° C. overnight, the plates were washed three times with PBST (PBS with 0.05% Tween 20 [VWR, 0777]). The plates were then blocked for an hour with 2% BSA (EMD Millipore, 126609) in PBST at room temperature with gentle rocking. Thereafter, the 2% BSA in PBST was discarded and Gal3-binding antibodies (reformatted hIgG4 [S228P]) were diluted in 2% BSA in PBST to concentrations of 5 μg/mL and added to the wells. The plates were incubated for an hour at room temperature with gentle rocking and then washed three times with PBST. Afterwards, Peroxidase AffiniPure F(ab′)2 Fragment Goat Anti-Human IgG (H+L) polyclonal antibody (Jackson ImmunoResearch, 109-036-003), was diluted in 2% BSA in PBST (1:4000) and added to the wells. The plates were incubated for 1 hour at room temperature with gentle rocking and then washed three times with PBST. TMB substrate (Thermo Scientific, 34029) was then added to each well. The reaction was stopped with 1M HCl (JT Baker, 5620-02) and read using a plate reader (Molecular Devices) at absorbance of 450 nm.

[1] = test system: GLUT4 translocation in L6 GLUT4myc myoblasts; experiment: Insulin-stimulated GLUT4 translocation with Gal3 and anti-Gal3 antibody; type: cell-based, rat; conditions: 30 μg/mL Gal3 pre-incubated with 60 μg/mL antibody, 100 nM insulin
Procedure: Rat L6 GLUT4myc myoblasts (Kerafast #ESK202-FP) express a Myc-tagged GLUT4 that can be detected with an anti-Myc antibody. These cells were grown in a 48-well plate in MEM u growth media (Gibco, #12-571-063)+10% fetal bovine serum (FBS; Corning #35-016-CV) until 90-95% confluence was reached. Cells were then washed in PBS and serum starved for 2 hours in MEM u growth media without FBS. Thirty (30) μg/mL recombinant human Gal3 (TrueBinding QCB200347) was pre-incubated with 60 μg/mL anti-Gal3 antibodies for 30 minutes before being added to the serum-starved cells for 1 hour at 37° C. At the end of incubation, half of the cells were treated with 100 nM insulin (Sigma-Aldrich #I5523-50MG) for 20 minutes while the other half acted as basal controls. After 20 minutes, cells were washed quickly with ice cold PBS twice, then incubated with 4% paraformaldehyde (Boster Bio #AR1068) for 10 minutes on ice followed by 10 minutes at room temperature. The cells were washed three times with PBS, then blocked with 0.5 mL 5% goat serum (Vector Laboratories #101098-382) in PBS for 15 minutes. After the blocking agent was aspirated from the cells, 1 μg/ml anti-Myc polyclonal antibody (Sigma-Aldrich #C-3956) in 5% goat serum was added for 1 hour. […] Primary antibody was aspirated away, and then cells washed 5 times with PBS. Next, cells (including background controls) were incubated with 1:1000 goat anti rabbit antibody secondary antibody (Abcam #Ab97051) in 5% Goat serum for 30 minutes at room temperature. After washing, cells were incubated with 400 μL of TMB (Thermo Scientific #PI34029) for 5 minutes, then 200 μL of 1N HCL (Avantor Performance #JT5620-2) was added to stop the reaction. 100 μL of the sample was transferred to a 96 well plate with duplicates transferred for each condition. Samples were read at 450 nm on a SpectraMax plate reader. […] The fold changes were plotted on GraphPad Prism and presented as mean (SEM) of the technical replicates. Statistical significance was determined using unpaired T-tests comparing samples treated with Gal3 and insulin with all other conditions.

T1 sequence (P17931 whole entry): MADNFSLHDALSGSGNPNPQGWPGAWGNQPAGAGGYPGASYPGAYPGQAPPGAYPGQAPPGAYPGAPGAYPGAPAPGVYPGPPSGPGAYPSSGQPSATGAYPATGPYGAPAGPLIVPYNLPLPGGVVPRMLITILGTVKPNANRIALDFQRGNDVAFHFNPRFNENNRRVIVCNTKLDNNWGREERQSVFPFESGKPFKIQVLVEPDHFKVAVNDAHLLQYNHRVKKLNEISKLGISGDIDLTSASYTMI

| Molecule | binding to hGAL3 when immobilized on HC200M chip (human Gal3) | binding to any of the tested Gal3 peptides (Human Gal3 peptides) | epitope bin (mutual competitive binding for Gal3) (human Gal3) | effect on Gal3 block of insulin-stimulated GLUT4 translocation [1] |
| --- | --- | --- | --- | --- |
| 846T.4C9: anti-Gal3 antibody (antibody, V domains shown) VH: EVQLQQSGPELVKPGASVKMSCKASGYSFTNYIMHWVKQKPGQGLEWIGYINPYNDGTKYNEKFKGKATLTSDKSSSTAYMELSSLTSEDSAVYYCARLLFYYAMDYWGQGTSVTVSS VL: DILMTQTPSSMSVSLGDTVSITCHASQGISSNIGWLQQKPRKSFKGLIYYGTNLEDGVPSRFSGSGSGADYSLTISSLESEDFADYYCVQYDQFPWTFGGGTKLEIK | not bind | not found to bind | – | – |
| 20H5.A3-VH5VL3: anti-Gal3 antibody, VH SEQ ID NO: 818, VL SEQ ID NO: 833 (antibody, V domains shown, VH-92 Peptide Sequence; VL-90 Peptide Sequence) VH: QVQLVQSGFELKKPGASVKISCKASGYAFTTYGMSWVRQAPGQGLEWMGWVNTYSGVPTYAQAFTGRFVFSLDTSVSTAYLQISSLKAEDTAVYYCARGPYAMDYWGQGTLVTVSS VL: DIQMTQSPSSLSASVGDRVTITCRASQDISNYLNWYQQKPGKAPKLLIYYTSSLLSGVPSRFSGSGSGTDYTLTISSLQPEDFATYYCQQYSKLPYTFGQGTKLEIK | – | – | – | reduce the ability of Gal3 to block insulin-dependent GLUT4 translocation |
| 20H5.A3-VH6VL3: anti-Gal3 antibody, VH SEQ ID NO: 820, VL SEQ ID NO: 835 (antibody, V domains shown, VH-94 Peptide Sequence; VL-92 Peptide Sequence) VH: QVQLVQSGFELKKPGASVKISCKASGYAFTTYGMSWVRQAPGQGLEWMGWVNTYSGVPTSAQAFTGRFVFSLDTSVSTAYLQISSLKAEDTAVYYCARGPYAMDYWGQGTLVTVSS VL: DIQMTQSPSSLSASVGDRVTITCRASQDISNYLNWYQQKPGKAPKLLIYYTSSLLSGVPSRFSGSGSGTDYTLTISSLQPEDFATYYCQQYSKLPYTFGQGTKLEIK | – | – | – | reduce the ability of Gal3 to block insulin-dependent GLUT4 translocation |
| 20H5.A3-VH6VL1: anti-Gal3 antibody, VH SEQ ID NO: 819, VL SEQ ID NO: 834 (antibody, V domains shown, VH-93 Peptide Sequence; VL-91 Peptide Sequence) VH: QVQLVQSGFELKKPGASVKISCKASGYAFTTYGMSWVRQAPGQGLEWMGWVNTYSGVPTSAQAFTGRFVFSLDTSVSTAYLQISSLKAEDTAVYYCARGPYAMDYWGQGTLVTVSS VL: DIQMTQSPSSLSASVGDRVTITCQASQDISNYLNWYQQKPGKAPKLLIYYTSSLLTGVPSRFSGSGSGTDYTFTISSLQPEDIATYYCQQYSKLPYTFGQGTKLEIK | – | – | – | reduce the ability of Gal3 to block insulin-dependent GLUT4 translocation |
| 2D10-hVH4-HVL1: anti-Gal3 antibody, VH SEQ ID NO: 806, VL SEQ ID NO: 821 (antibody, V domains shown, VH-80 Peptide Sequence; VL-78 Peptide Sequence) VH: QVQLVQSGAEVKKPGASVKVSCKASGYTFTDYYINWVRQAPGQRLEWMGWIYPGSQDTKYNEKFQGRVTLTVDTSASTAYMELSSLRSEDTAVYFCANYFGSSGWFFDVWGQGTMVTVSS VL: DIVMTQSPLSLPVTPGEPASISCRSSKSLLHSDGITYLYWYLQKPGQSPQLLIYRMSNRASGVPDRFSGSGSGTDFTLKISRVEAEDVGVYYCAQMIEFPLTFGQGTKLEIK | – | – | – | reduce the ability of Gal3 to block GLUT4 translocation |
| 847.15F9: anti-Gal3 antibody (antibody, V domains shown) VH: QVQMKQSGPGLVQPSQSLSITCTVSGFSLINYGVHWVRQSPGKGLEWLGVIWSGGSTDYNAAFISRLSISKDNSKSQVFFKMNSLQADDTAIYYCARIYYYGRGYAMDYWGQGTSVTVSS VL: QIVLSQSPAILSASPGEKVTMTCRASSSVTYMYWYQQKPGSSPQPWIYATSNLASGVPARFSGSGSGTSYSLTISRVEAEDAATYYCQQWSSNPLTFGAGTKLELK | not bind | not found to bind | – | – |

Continued, in another order:

| binding to hGAL3 when immobilized on HC200M chip (human Gal3) | binding to any of the tested Gal3 peptides (Human Gal3 peptides) | epitope bin (mutual competitive binding for Gal3) (human Gal3) | Molecule | effect on Gal3 block of insulin-stimulated GLUT4 translocation [1] |
| --- | --- | --- | --- | --- |
| not bind | not found to bind | – | 847.21B11: anti-Gal3 antibody (antibody, V domains shown) VH: QVQLKQSGPGLVAPSQSLSITCTVSGFSLTSYGVHWVRQPPGKGLEWLGIIWAGGSTNYNPALMSRLSISKDKSKSQVFLKMNSLKTDDTAMYYCARDRASLLRPGAMDYWGQGTSVTVSS VL: DIVMTQSQKFMSTSVGDRVSVTCKASQNVGINVAWYQQKPGQSPKALIYSASYRYSGVPDRFTGSGSGTDFTLTISNVQSEDLAEYFCQQYNSYPYTFGGGTKLEMK | – |
| – | not found to bind | CRD | 847.16D10: anti-Gal3 antibody (antibody, V domains shown) VH: QVQLQQSGAELVRPGASVKLSCKASGYTFTGYWLNWVKQRPGQGLEWIGMIDPSDSETHYNQVFKDKATMTVDRSSSTAYMQLSGLTSEDSAVYYCANSNYASGSWGQGTTLTVSS VL: QAVVTQESALTTSPGETVTLTCRSSTGAVTTSNYANWDQEKPDHLFTGLIGGTNNRAPGVPARFSGSLIGDKAALTITGAQTEDEAIYFCALWYSNHLVFGGGTKVTVL | – |
| – | not found to bind | 21 | 849.5H1: anti-Gal3 antibody (antibody, V domains shown) VH: QVQLKESGPVLVAPSQSLSITCTVSGFSLTSYGIHWVRQPPGKGLEWLGVIWAGGSTNYNSALMSRLSISKDNSKSQVFLKMNSLQIDDTAMYYCAKPPHDYDQAWFAYWGQGTLITVSA VL: DIQMNQSPSSLSASLGDTITITCHASQNINVWLSWYQQKPGNIPKLLIYQASNLHTGVPSRFSGRGSGTGFTLTISSLQPEDIATYYCQQGQSSPFTFGSGTKLEIK | – |
| – | not found to bind | 10 | 849.2D7: anti-Gal3 antibody (antibody, V domains shown) VH: QVQLQQSGPQLVRPGASVKISCKASGYSFTNYWMHWVKQRPGQGLEWIGMIDPSDSETRLNQKFKDKATLTVDKSSSTAYMQLSSPTSEDSAVYYCATGRPDYWGQGTTLTVSS VL: DIVMTQSHKFMSTSVGDRVSITCKASQDVSTAVAWYQQKPGQSPKLLIYWASTRHTGVPDRFTGSGSGTDYTLTISSVQAEDLALYYCQQHYSTPYTFGGGTKLEIK | – |
| – | not found to bind | – | 847.20H7: anti-Gal3 antibody (antibody, V domains shown) VH: QVQLQQSGAELVRPGASVNLSCKASGYTFTNYWMNWVKQRPGQGLEWVGMIDPSDSETHYNQMFKDKATLTIDKSSSIAYMQLSSLTSEDSAVYYCARWGAMDYWGQGTSVTVSS VL: DIVMTQSHKIMSTSVGDRVSITCKASQDVSTTVAWFQQKPGQSPKLLLYWASTRHTGVPDRFTGSGSGTDYTLTISSVQAEDLALYYCQQHYSPPFTFGSGTKLEIK | – |
